5 variants from publication doi:10.1101/2023.10.27.564484, “Insights into Molecular Diversity within the FET Family: Unraveling Phase Separation of the N-Terminal Low Complexity Domain from RNA-Binding Protein EWS” (bioRxiv, 2023) can be followed below.

The labels stand for the following.
B1: EWS low-complexity domain (N-terminal 264 residues of RNA-binding protein EWS) [not stated] / itself (parent)
chain: GAMASTDYSTYSQAAAQQGYSAYTAQPTQGYAQTTQAYGQQSYGTYGQPTDVSYTQAQTTATYGQTAYATSYGQPPTGYTTPTAPQAYSQPVQGYGTGAYDTTTATVTTTQASYAAQSAYGTQPAYPAYGQQPAATAPTRPQDGNKPTETSQPQSSTGGYNQPSLGYGQSNYSYPQVPGSYPMQPVTAPPSYPPTSYSSTQPTSYDQSSYSQQNTYGQPSSYGQQSSYGQQSSYGQQPPTSYPPQTGSYSQAPSQYSQQSSSYGQQ

Variants of B1 are the subject of the experiment. The experiment can be described thus: pelleting assay (phase separation). The conditions noted are these: with itself; 50 µM protein, 150 mM NaCl, 20 mM Tris pH 7.4; read off a plot.
In the case of chain 1 Y46S, the screen value stood at 0.64.
As for chain 1 Y172S Y174S, the figure is 0.81; as for chain 1 Y174S, 0.75; as for chain 1 Y210S, 0.5.
As for chain 1 N171S, the figure is 0.6.
